Experimental findings from the supplement of paper PMC9170038 are described below.

This series concerns MS2 coat protein. Put plainly: apparent KD of MS2 coat protein; designed switch direction (-1 OFF switch, 1 ON switch): 1; higher = weaker reporter binding. In short, it runs like this: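 Normalised cluster fluorescence was curve-fitted, and each design's median over clusters is its apparent KD. Before this, SNAP-549-labelled MS2 coat protein was titrated from 0.7 or 1.5 nM, doubling to 3 µM, over RNA switches transcribed on Illumina chips by stalled E. coli RNA polymerase. Titrations had no input, 200 uM small-molecule ligand, or an oligonucleotide input, and steps lasted 0.8–1.5 h (lowest) to 10–20 min (highest).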

Setting [1] is: Eterna round: R95, input ligand: FMN 200 uM.
Setting [2] is: Eterna round: R95, input ligand: microRNA oligo, concentration not stated.
Where [3] appears, read: Eterna round: R95, input ligand: none.
[4] abbreviates: input ligand: microRNA oligo, concentration not stated.

For “GGAGGAUGAGCGUAGGAUAUAGGAGGAGUGACAUGAGGAUCACCCAUGUGGUAGGAGGGAGGGUACUAGAAGGACGAGGAAGAGG [JR_SS2_Sub070] (puzzle: Same State 2)”, the “apparent KD of MS2 coat protein” value was 54.6 nM under setting [1], 64.5 nM under setting [2] and 74.5 nM under setting [3].
Take “GGCACAGCGUGAGGAUAUCGGUACGCACGUAGUCGAGAAGGUACCUGAAAUGGUACACAUGAGGAUCACCCAUGUGACUGGGCA [Eternabot solution 14] (Eterna round: R96, puzzle: Same State NG 1)”: the “apparent KD of MS2 coat protein” value (input ligand: FMN 200 uM) came out at 40.7 nM, the “apparent KD of MS2 coat protein” value under setting [4] was 27.1 nM and the “apparent KD of MS2 coat protein” value (input ligand: none) came to 41.6 nM.
With “GGCAGGUGCAGGCUUGCUUGCACCUGGAAACAUGAGGAUCACCCAUGUUUGGGACAAGCUUUGCUCUUCGUCUUUUC [JL ViennaUCT Isusreraar mod 5] (puzzle: Sensor for hsa-mir-208a)”, the “apparent KD of MS2 coat protein” value by setting is: under setting [1], 43.7 nM; under setting [2], 55.1 nM; under setting [3], 54.2 nM.
For the sequence “GGCCUCUGUCAAGGAUAUGCUACCGUUUCGGUAGCAGAAGGUGAUCACAUGAGGAUCACCCAUGUUUAGGCCCUCUGGCCCGCC (Eterna round: R96, puzzle: Same State NG 1)”, the “apparent KD of MS2 coat protein” value came to 114 nM (input ligand: FMN 200 uM), 330 nM under setting [4] and 138 nM (input ligand: none).
For “GGCCUCUGUCAAGGAUAUGCUACCGUUUCGGUAGCAGAAGGUGAUCACAUGCGGGUCACCCAUGUUUAGGCCCUCUGGCCCGCC (Eterna round: R96, puzzle: Same State NG 1)” the same measures were 19.1 nM, 10.2 nM and 18.6 nM.
For “GGCUGCAAUUAUGAGGAUAUGUUCGGAUGAACAUGAGGAUCACCCAUGUGGCGAUAGCUAUCUGUGCAGAAGGUGUAGUGGUAGC [Edlexete] (Eterna round: R96, puzzle: Same State 2)” the same measures were 57.9 nM, 90.7 nM and 186 nM.
“GGGAAGAGGGACAAGGAUAUGUCAAAAGAGACAUGAGGAUCACCCAUGUGGAGGUUGGAGCAGAGACAGAAGGUGUACGGAGAGA [JR_SS2_Sub009] (puzzle: Same State 2)”: the “apparent KD of MS2 coat protein” value under setting [1] was determined as 69.7 nM, the “apparent KD of MS2 coat protein” value under setting [2] was 63 nM and the “apparent KD of MS2 coat protein” value under setting [3] was found to be 152 nM.
For “GGGCCAGCCUGUGCUGGGCUUUAGCAUGCACAUGAGGAUCACCCAUGUCGUGUACAUGCUUUUUGCUCGUCUUUAAA [Photon Torp-08] (puzzle: Sensor for hsa-mir-208a)” the same measures were 80.2 nM, 17.4 nM and 84.1 nM.
Consider “GGGCCAGCUUUUGCUGGGCCUUCGCUUGCACAUGAGGAUCACCCAUGUCGUGUACACGCUUCCUGCCCGUCUUUUUU [Photon Torp-18] (puzzle: Sensor for hsa-mir-208a)”, for which the “apparent KD of MS2 coat protein” value under setting [1] is 21.2 nM, the “apparent KD of MS2 coat protein” value under setting [2] was found to be 13.6 nM and the “apparent KD of MS2 coat protein” value under setting [3] came to 21.8 nM.
For “GGUAAACAUGAGGAUCACCCAUGUAAUAUAAUGGGAGGAUAUCUGAAUUAAUUAAAUUAAGGAGAAGGCCUAAUGU [Mat - Same State 1 - Mod of Eli - D50] (puzzle: Same State 1)” the same measures were 65.5 nM, 462 nM and 410 nM.
Turning to “GGUAAGAAUUAAGGAUAUUGAAUACAUAUGUUUAACAUGAGGAUCACCCAUGUGGGUUGCGGUGUCGAGAAGGUAAAUUAAUAG [Mat - same State NG 2 - JL mod - D100] (Eterna round: R96, puzzle: Same State NG 2)”, the “apparent KD of MS2 coat protein” value is 262 nM (input ligand: FMN 200 uM), 166 nM under setting [4] and 305 nM (input ligand: none).
Turning to “GGUAUCGACACAGGAUAUGCUAUCCUUUGGGUAGCAGAAGGGUGAACAUGAGGAUCACCCAUGUAGGUGCCAGGGCGUGAGCCC [JL SSNG1 1.79] (Eterna round: R96, puzzle: Same State NG 1)”, the “apparent KD of MS2 coat protein” value is, setting by setting: (input ligand: FMN 200 uM) 368 nM; under setting [4], 94.1 nM; (input ligand: none) 787 nM.
For “GGUAUCGGCACAGGAUAUGCUAUCCUUUGGGUAGCAGAAGGGUGGACAUGAGGAUCACCCAUGUGGGUGCCAGGGCGUGAGCCC [JL SSNG1 1.85] (Eterna round: R96, puzzle: Same State NG 1)” the same measures were 912 nM, 363 nM and 907 nM.
For “GGUCCAGCCUGAGCUGGACAAAAGCAUGUACAUGAGGAUCACCCAUGUCAUGUACAAGCUUUUUGCUCGUCAUAAAU [Mat - hsa-mir-208a - 96] (Eterna round: R96, puzzle: Sensor for hsa-mir-208a)” the same measures were 573 nM, 16.3 nM and 435 nM.
Consider “GGUCCAGCCUGAGCUGGACAAAAGCAUGUACAUGAGGAUCACCCAUGUCAUGUACAAGCUUUUUGCUCGUCAUAAAU [Mat - hsa-mir-208a - 96] (puzzle: Sensor for hsa-mir-208a)”, for which the “apparent KD of MS2 coat protein” value was determined as 702 nM under setting [1], 13.1 nM under setting [2] and 668 nM under setting [3].
As to “GGUCCAGCCUGAGCUGGACCACAGCAUGUACAUGAGGAUCACCCAUGUCAUGUACAAGCUUUUUGUUUAAAAUAAAA [Sensorship 13 - Jieux - Sensor for hsa-mir-208a] (puzzle: Sensor for hsa-mir-208a)”, the “apparent KD of MS2 coat protein” value reads like this: under setting [1], 261 nM; under setting [2], 30.5 nM; under setting [3], 209 nM.
In the case of “GGUCGGACUCAACAUGAGGAUCACCCAUGUGCGGAAACGCCAUAGGAUAUCUGUCCGAAAAGGUCAGAGAAGGGUGAACCGACC [Fiskers NG3ss - 66] (Eterna round: R96, puzzle: Same State NG 3)”, the “apparent KD of MS2 coat protein” value was 435 nM (input ligand: FMN 200 uM), 263 nM under setting [4] and 471 nM (input ligand: none).
For the sequence “GGUGAGAGAGUCAAGGAUAUGAAAGGAGAGACAUGAGGAUCACCCAUGUAAGAGAGAGAGGAGAGUUAGAAGGUGAAGAGAGUGG [Altered State 2-24 - Jieux - Same State 2] (puzzle: Same State 2)”, the “apparent KD of MS2 coat protein” value was determined as 42.7 nM under setting [1], 39.5 nM under setting [2] and 64.7 nM under setting [3].
Regarding “GGUGCCAAAUAAGCCUACAUGAGGAUCACCCAUGUAUGUAGGCAGGAUAUCGUUUGCAAAGCAAACGAGAAGGGCCUAGGCACC [Mat - Same State NG 3 - JL Mod - D62] (Eterna round: R96, puzzle: Same State NG 3)”, the “apparent KD of MS2 coat protein” value by setting is: (input ligand: FMN 200 uM) 19.1 nM; under setting [4], 18.5 nM; (input ligand: none) 35.2 nM.
On to “GGUGCCAAAUAAGCCUACAUGAGGAUCACCCAUGUAUGUAGGUAGGAUAUCGUAUGCAAAGCAUACGAGAAGGGCCUAGGCACC [Mat - Same State NG 3 - JL Mod - D60] (Eterna round: R96, puzzle: Same State NG 3)”, for which the “apparent KD of MS2 coat protein” value reads like this: (input ligand: FMN 200 uM) 18.1 nM; under setting [4], 37.3 nM; (input ligand: none) 60.7 nM.
For “GGUGCCAAUAAAGCCUACAUGAGGAUCACCCAUGUAUGUAGGCAGGAUAUCGUUUGCUUUGCAAACGAGAAGGGCCUAGGCACC [JL SSNG3 1.21] (Eterna round: R96, puzzle: Same State NG 3)” the same measures were 16.3 nM, 24.3 nM and 29.8 nM.
For “GGUGCGAAUAAAGCCUACAUGAGGAUCACCCAUGUAUGUAGGCAGGAUAUCGUUUGCUUUGCAAACGAGAAGGGCUGACGCACC [JL SSNG3 1.17] (Eterna round: R96, puzzle: Same State NG 3)” the same measures were 27.4 nM, 37.7 nM and 63.6 nM.
As to “GGUGGGUUGCUGCCGGCACAUGAGGAUCACCCAUGUUUUGGGAAGGAUAUGGUACCUCUUUGGUGCCAGAAGGUCCCGUUGGUG [salish99_SSNG3_r04_713] (Eterna round: R96, puzzle: Same State NG 3)”, the “apparent KD of MS2 coat protein” value amounted to 2020 nM (input ligand: FMN 200 uM), 503 nM under setting [4] and 1740 nM (input ligand: none).
Consider “GUAAAACAUGAGGAUCACCCAUGUAAUAAUAUGGGAGGAUAUCAGAAUGUAUGUAUGUAAUGAGAAGGCCUAAAUG [Mat - Same State 1 - Mod of Eli - D74] (puzzle: Same State 1)”, for which the “apparent KD of MS2 coat protein” value under setting [1] is 101 nM, the “apparent KD of MS2 coat protein” value under setting [2] is 1610 nM and the “apparent KD of MS2 coat protein” value under setting [3] turned out to be 1120 nM.
In the case of “GUAAGGCAAGCUUUUUUCUCGUAGUGUAAACAUGAGGAUCACCCAUGUGCUCGCCCUGGAUCUUUGAAUCGCAGAAA [Ritiorreon] (puzzle: Sensor for hsa-mir-208a)”, the “apparent KD of MS2 coat protein” value was determined as 44.9 nM under setting [1], 23.1 nM under setting [2] and 49.5 nM under setting [3].
For “GUACAGAUUAUAGGAUAUCACGUCGAUUAGACGUGAGAAGGAUAAUCCCACAUGAAUAUUAAUACAUGAGGAUCACCCAUGUAC [SSNG1/18-B2] (Eterna round: R96, puzzle: Same State NG 1)”, the “apparent KD of MS2 coat protein” value was found to be 24.2 nM (input ligand: FMN 200 uM), 22 nM under setting [4] and 30.5 nM (input ligand: none).
For “GUACAUAUCGUAGGAUAUCACGUCGAAUAGACGUGAGAAGGACGGUCCCACAUGAAUAUUAAUACAUGAGGAUCACCCAUGUAC [MOD SSNG 1/18-A1 by Brourd] (Eterna round: R96, puzzle: Same State NG 1)” the same measures were 92.5 nM, 41.8 nM and 43 nM.
